What was measured:
[1] = molecular target: human trophoblast cell-surface antigen (Trop-2) (human) (UniProt P09758); assay: FACS on PC-3 cells
[2] = molecular target: human trophoblast cell-surface antigen (Trop-2) (human) (UniProt P09758); assay: FACS on BxPC-3 cells
[3] = molecular target: human trophoblast cell-surface antigen (Trop-2) (human) (UniProt P09758); assay: FACS on Calu-3 cells
[4] = molecular target: human trophoblast cell-surface antigen (Trop-2) (human) (UniProt P09758); assay: FACS on Capan-1 cells
[5] = molecular target: human trophoblast cell-surface antigen (Trop-2) (human) (UniProt P09758); assay: FACS on COLO 205 cells
[6] = molecular target: human trophoblast cell-surface antigen (Trop-2) (human) (UniProt P09758); assay: FACS on SK-MES-1 cells
[7] = molecular target: human trophoblast cell-surface antigen (Trop-2) (human) (UniProt P09758); assay: cell-based or functional assay
[8] = molecular target: human trophoblast cell-surface antigen (Trop-2) (human) (UniProt P09758); assay: FACS on PC-3 cells; background 5.5
[9] = molecular target: human trophoblast cell-surface antigen (Trop-2) (human) (UniProt P09758); assay: FACS on BxPC-3 cells; background 3.1
[10] = molecular target: human trophoblast cell-surface antigen (Trop-2) (human) (UniProt P09758); assay: FACS on Calu-3 cells; background 4.7
[11] = molecular target: human trophoblast cell-surface antigen (Trop-2) (human) (UniProt P09758); assay: FACS on Capan-1 cells; background 5.0
[12] = molecular target: human trophoblast cell-surface antigen (Trop-2) (human) (UniProt P09758); assay: FACS on COLO 205 cells; background 4.5
[13] = molecular target: human trophoblast cell-surface antigen (Trop-2) (human) (UniProt P09758); assay: FACS on SK-MES-1 cells; background 3.5
[14] = molecular target: human trophoblast cell-surface antigen (Trop-2) (human) (UniProt P09758); assay: flow cytometry, surface, Capan-1 cells
[15] = molecular target: human trophoblast cell-surface antigen (Trop-2) (human) (UniProt P09758); assay: flow cytometry, surface, NCI-N87 cells
[16] = molecular target: CD74 (invariant chain, Ii) (human) (UniProt P04233); assay: flow cytometry, permeabilized Raji cells
CD74 (invariant chain, Ii) (human), sequence (P04233 whole entry, change not shown): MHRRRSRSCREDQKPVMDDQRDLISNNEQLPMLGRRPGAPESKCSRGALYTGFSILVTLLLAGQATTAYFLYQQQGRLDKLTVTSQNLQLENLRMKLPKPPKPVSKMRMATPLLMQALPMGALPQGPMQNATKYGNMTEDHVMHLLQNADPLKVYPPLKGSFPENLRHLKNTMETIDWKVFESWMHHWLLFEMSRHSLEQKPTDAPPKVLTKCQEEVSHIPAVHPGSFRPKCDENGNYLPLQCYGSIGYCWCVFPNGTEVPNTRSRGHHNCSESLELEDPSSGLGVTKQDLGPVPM

[17] = molecular target: CD74 (invariant chain, Ii) (human) (UniProt P04233); assay: flow cytometry, surface only, Raji cells
[18] = molecular target: CD74 (invariant chain, Ii) (human) (UniProt P04233); assay: flow cytometry, permeabilized A-375 cells
[19] = molecular target: CD74 (invariant chain, Ii) (human) (UniProt P04233); assay: flow cytometry, permeabilized HuH-7 cells
[20] = molecular target: CD74 (invariant chain, Ii) (human) (UniProt P04233); assay: flow cytometry, surface only, A-375 cells
[21] = molecular target: CD74 (invariant chain, Ii) (human) (UniProt P04233); assay: flow cytometry, surface only, HuH-7 cells
[22] = molecular target: CD74 (invariant chain, Ii) (human) (UniProt P04233); assay: flow cytometry, permeabilized Hep-G2 cells
[23] = molecular target: CD74 (invariant chain, Ii) (human) (UniProt P04233); assay: flow cytometry, permeabilized Hs746T cells
[24] = molecular target: CD74 (invariant chain, Ii) (human) (UniProt P04233); assay: flow cytometry, surface only, Hep-G2 cells
[25] = molecular target: CD74 (invariant chain, Ii) (human) (UniProt P04233); assay: flow cytometry, surface only, Hs746T cells
[26] = molecular target: CD74 (invariant chain, Ii) (human) (UniProt P04233); assay: flow cytometry, permeabilized Capan-1 cells
[27] = molecular target: CD74 (invariant chain, Ii) (human) (UniProt P04233); assay: flow cytometry, permeabilized NCI-N87 cells
[28] = molecular target: CD74 (invariant chain, Ii) (human) (UniProt P04233); assay: flow cytometry, surface only, Capan-1 cells
[29] = molecular target: CD74 (invariant chain, Ii) (human) (UniProt P04233); assay: flow cytometry, surface only, NCI-N87 cells

human trophoblast cell-surface antigen (Trop-2) (human), sequence (P09758 27-323): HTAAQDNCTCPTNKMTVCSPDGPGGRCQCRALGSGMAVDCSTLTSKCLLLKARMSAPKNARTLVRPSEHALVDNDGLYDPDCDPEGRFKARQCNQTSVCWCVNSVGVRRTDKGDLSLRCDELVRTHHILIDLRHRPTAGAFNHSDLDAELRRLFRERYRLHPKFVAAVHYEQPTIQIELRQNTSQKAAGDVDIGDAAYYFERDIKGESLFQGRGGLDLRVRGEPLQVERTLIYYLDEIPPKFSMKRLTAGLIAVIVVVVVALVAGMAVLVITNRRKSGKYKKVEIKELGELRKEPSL

humanized RS7 IgG (hRS7), anti-Trop-2 (antibody)
percent positive [1]: 73.6%
percent positive [2]: 98.3%
percent positive [3]: 99.6%
percent positive [4]: 94.2%
percent positive [5]: 99.5%
percent positive [6]: 91.2%
ADCC, specific lysis of BxPC-3 target cells by PBMCs (effector to target 100:1), antibody at 33.3 nM [7]: 8.5%
median fluorescence [8]: 46.2
median fluorescence [9]: 26.4
median fluorescence [10]: 282
median fluorescence [11]: 100
median fluorescence [12]: 142
median fluorescence [13]: 44
MFI (surface) [14]: 237
MFI (surface) [15]: 795

milatuzumab (hLL1), humanized anti-CD74 IgG1 (antibody)
MFI ratio hLL1:bkgd (surface and cytoplasmic) [16]: 28.6
MFI ratio hLL1:bkgd (surface) [17]: 19.6
MFI ratio hLL1:bkgd (surface and cytoplasmic) [18]: 30.8
MFI ratio hLL1:bkgd (surface and cytoplasmic) [19]: 28.5
MFI ratio hLL1:bkgd (surface) [20]: 5.3
MFI ratio hLL1:bkgd (surface) [21]: 1.6
MFI ratio hLL1:bkgd (surface and cytoplasmic) [22]: 31.2
MFI ratio hLL1:bkgd (surface and cytoplasmic) [23]: 28.8
MFI ratio hLL1:bkgd (surface) [24]: 1.5
MFI ratio hLL1:bkgd (surface) [25]: 2.1
MFI ratio hLL1:bkgd (surface and cytoplasmic) [26]: 49.6
MFI ratio hLL1:bkgd (surface and cytoplasmic) [27]: 36.7
MFI ratio hLL1:bkgd (surface) [28]: 1.8
MFI ratio hLL1:bkgd (surface) [29]: 1.3
